Columns and labels:
HAT-HA-SpoVG [1] = target: T1, HAT-HA-SpoVG (Staphylococcus epidermidis 1457, UniProt Q8CML1 1-102); test: EMSA; 2-12 uM SpoVG, 2 mM Mg2+; 20 mM HEPES pH 8.0, 10 mM KCl, 2 mM MgCl2, 0.1 mM EDTA, 0.1 mM DTT, 50 ug/mL BSA, 10% glycerol; 200 fmol probe in 20 uL; 30 min room temperature; 2.5% agarose gel in cold TAE; settings: protein: recombinant; tags: N-terminal HAT-HA-linker; label: DYE682; blunt
T1 sequence: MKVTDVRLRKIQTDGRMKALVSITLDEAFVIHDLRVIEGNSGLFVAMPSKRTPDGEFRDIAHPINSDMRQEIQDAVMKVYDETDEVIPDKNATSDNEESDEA

HAT-HA-SpoVG [2] = target: T1, HAT-HA-SpoVG; test: competition EMSA; 10x or 20x excess over labeled icaA probe; 20 mM HEPES pH 8.0, 10 mM KCl, 2 mM MgCl2, 0.1 mM EDTA, 0.1 mM DTT, 50 ug/mL BSA, 10% glycerol; 200 fmol probe in 20 uL; 30 min room temperature; 2.5% agarose gel in cold TAE; settings: protein: recombinant; tags: N-terminal HAT-HA-linker; blunt
HAT-HA-SpoVG [3] = target: T1, HAT-HA-SpoVG; test: EMSA; 12 uM SpoVG, 2 mM Mg2+; 20 mM HEPES pH 8.0, 10 mM KCl, 2 mM MgCl2, 0.1 mM EDTA, 0.1 mM DTT, 50 ug/mL BSA, 10% glycerol; 200 fmol probe in 20 uL; 30 min room temperature; 2.5% agarose gel in cold TAE; settings: protein: recombinant; tags: N-terminal HAT-HA-linker; label: DYE682; blunt

B1: icaA probe (dsDNA)
DNA 1: TAACAACATTCTATTGCAAATTGAAATACTTTCGATTAGCATATGCTTTACAACCTAACTAACGAAAGGTAGGTGAAAAA
DNA 2: TTTTTCACCTACCTTTCGTTAGTTAGGTTGTAAAGCATATGCTAATCGAAAGTATTTCAATTTGCAATAGAATGTTGTTA
B1: binds (HAT-HA-SpoVG [1]).

B2: unlabeled icaA probe (dsDNA)
DNA 1: TAACAACATTCTATTGCAAATTGAAATACTTTCGATTAGCATATGCTTTACAACCTAACTAACGAAAGGTAGGTGAAAAA
DNA 2: TTTTTCACCTACCTTTCGTTAGTTAGGTTGTAAAGCATATGCTAATCGAAAGTATTTCAATTTGCAATAGAATGTTGTTA
B2: binds (HAT-HA-SpoVG [2]).

B3: secA p control probe (dsDNA)
DNA 1: AGTATAATTTTCTAACTATAAATGATAAGATATATTGTTGTAGGCCAAACAGTTTTTTAGCTAAAGGAGCGAACGAAATG
DNA 2: CATTTCGTTCGCTCCTTTAGCTAAAAAACTGTTTGGCCTACAACAATATATCTTATCATTTATAGTTAGAAAATTATACT
B3: no binding (HAT-HA-SpoVG [3]).

— paper PMC8949118, “The Transcription Factor SpoVG Is of Major Importance for Biofilm Formation of Staphylococcus epidermidis under In Vitro Conditions, but Dispensable for In Vivo Biofilm Formation”
